Source: patent publication CN112300289A (UNIV CHINA PHARMA, dated 2021)

Columns and labels:
[1] = target: TNFα; test: cell-based or functional assay
[2] = target: T1, 整合素αvβ3 (human, UniProt P06756 31-1048; P05106 27-788); test: concluded from the MDA-MB-231 cell adhesion assay; no direct binding assay
T1 construct: whole, on cells; The adhesion assay used whole MDA-MB-231 cells; also called 整合素αvβ3受体; 玻连蛋白(Vitronectin,VN)受体
T1 sequence (P06756 31-1048, chain 1 of 2): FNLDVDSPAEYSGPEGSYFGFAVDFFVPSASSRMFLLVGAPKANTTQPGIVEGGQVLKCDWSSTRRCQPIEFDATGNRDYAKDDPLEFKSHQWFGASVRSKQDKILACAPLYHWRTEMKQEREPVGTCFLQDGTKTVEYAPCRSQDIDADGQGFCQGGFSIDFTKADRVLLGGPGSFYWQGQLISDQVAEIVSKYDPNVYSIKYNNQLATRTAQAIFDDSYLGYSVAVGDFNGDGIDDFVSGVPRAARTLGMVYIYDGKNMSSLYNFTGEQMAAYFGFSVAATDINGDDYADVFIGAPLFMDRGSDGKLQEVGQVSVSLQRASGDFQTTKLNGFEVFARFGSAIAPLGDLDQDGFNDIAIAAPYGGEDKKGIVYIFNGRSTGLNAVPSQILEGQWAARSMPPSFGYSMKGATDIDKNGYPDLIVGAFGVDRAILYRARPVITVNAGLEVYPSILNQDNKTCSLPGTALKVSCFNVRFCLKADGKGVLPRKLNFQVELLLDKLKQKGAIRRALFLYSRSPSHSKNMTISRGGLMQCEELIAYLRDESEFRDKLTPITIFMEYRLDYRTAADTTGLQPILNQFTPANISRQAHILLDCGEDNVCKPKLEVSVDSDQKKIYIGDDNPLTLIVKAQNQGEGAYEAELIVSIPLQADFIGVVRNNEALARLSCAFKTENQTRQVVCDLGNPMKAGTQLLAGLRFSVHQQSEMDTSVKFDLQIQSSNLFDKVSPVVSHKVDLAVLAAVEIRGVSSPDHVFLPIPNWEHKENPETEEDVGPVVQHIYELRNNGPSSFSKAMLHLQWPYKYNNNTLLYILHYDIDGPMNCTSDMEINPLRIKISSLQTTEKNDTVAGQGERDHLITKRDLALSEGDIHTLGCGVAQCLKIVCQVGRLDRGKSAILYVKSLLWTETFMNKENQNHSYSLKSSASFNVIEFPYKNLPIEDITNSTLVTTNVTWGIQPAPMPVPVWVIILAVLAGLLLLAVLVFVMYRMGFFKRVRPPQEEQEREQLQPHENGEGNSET
T1 sequence (P05106 27-788, chain 2 of 2): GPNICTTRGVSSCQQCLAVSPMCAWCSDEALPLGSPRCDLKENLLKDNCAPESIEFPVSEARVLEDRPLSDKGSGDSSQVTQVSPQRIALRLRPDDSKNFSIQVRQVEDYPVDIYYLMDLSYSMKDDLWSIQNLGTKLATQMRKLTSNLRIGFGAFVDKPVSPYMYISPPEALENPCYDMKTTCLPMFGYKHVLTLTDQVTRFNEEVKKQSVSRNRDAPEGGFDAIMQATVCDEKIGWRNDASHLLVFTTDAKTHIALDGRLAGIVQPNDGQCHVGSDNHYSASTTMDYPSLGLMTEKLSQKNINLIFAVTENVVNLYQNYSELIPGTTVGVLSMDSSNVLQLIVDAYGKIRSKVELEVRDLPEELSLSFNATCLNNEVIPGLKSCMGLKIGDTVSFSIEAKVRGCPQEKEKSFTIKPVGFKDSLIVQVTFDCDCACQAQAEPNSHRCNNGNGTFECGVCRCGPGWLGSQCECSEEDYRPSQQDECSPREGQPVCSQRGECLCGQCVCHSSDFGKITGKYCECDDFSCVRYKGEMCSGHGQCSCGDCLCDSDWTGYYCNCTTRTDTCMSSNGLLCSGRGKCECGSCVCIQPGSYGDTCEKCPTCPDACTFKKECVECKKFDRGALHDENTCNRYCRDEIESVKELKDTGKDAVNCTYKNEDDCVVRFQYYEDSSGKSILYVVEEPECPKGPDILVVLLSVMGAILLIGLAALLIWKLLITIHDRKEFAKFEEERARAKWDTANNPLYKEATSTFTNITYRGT

Sequence of TNFα (P01375 77-233): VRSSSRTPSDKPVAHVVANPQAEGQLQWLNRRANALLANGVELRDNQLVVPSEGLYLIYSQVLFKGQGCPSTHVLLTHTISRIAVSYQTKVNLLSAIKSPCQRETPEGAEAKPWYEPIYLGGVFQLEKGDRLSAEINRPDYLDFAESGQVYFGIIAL

Row | Binder | IC50, inhibition of TNFα cytotoxicity on L929 cells (MTT) [1] | binding result [2]
1 | RGD4C融合抗TNFα纳米抗体 N端-VHH-Linker-RGD4C-6HIS-C端 (VHH, also called V-L-R-H; RGD4C-anti-TNFα-Nanobody) VHH: QVQLVESGGGLVQAGGSLRLSCTASGQTSSTADMGWFRQPPGKGREFVARISGIDGTTYYDEPVKGRFTISRDKAQNTVYLQMDSLKPEDTAVYYCRSPRYADQWSAYDYWGQGTQVTVSS | 0.106 nM | binds
2 | RGD4C融合抗TNFα纳米抗体 N端-VHH-6HIS-Linker-RGD4C-C端 (VHH) VHH: QVQLVESGGGLVQAGGSLRLSCTASGQTSSTADMGWFRQPPGKGREFVARISGIDGTTYYDEPVKGRFTISRDKAQNTVYLQMDSLKPEDTAVYYCRSPRYADQWSAYDYWGQGTQVTVSS | 0.113 nM | –
3 | RGD4C融合抗TNFα纳米抗体 N端-RGD4C-Linker-6HIS-VHH-C端 (VHH) VHH: QVQLVESGGGLVQAGGSLRLSCTASGQTSSTADMGWFRQPPGKGREFVARISGIDGTTYYDEPVKGRFTISRDKAQNTVYLQMDSLKPEDTAVYYCRSPRYADQWSAYDYWGQGTQVTVSS | 0.187 nM | –
